Consider one molecule from paper PMC4586518 (2015).

What is called Kd is the equilibrium constant for the complex coming apart.

The assay addresses Melanocortin-1 receptor (MC-1R) (Mus musculus, UniProt Q01727). Description: radioligand competition binding with [125I]-α-MSH on B16 cells. (In general: Loss of bound radioactivity is the signal in a displacement assay; it reports binding, not function.)

Sequence of Melanocortin-1 receptor (MC-1R) (Q01727 whole entry): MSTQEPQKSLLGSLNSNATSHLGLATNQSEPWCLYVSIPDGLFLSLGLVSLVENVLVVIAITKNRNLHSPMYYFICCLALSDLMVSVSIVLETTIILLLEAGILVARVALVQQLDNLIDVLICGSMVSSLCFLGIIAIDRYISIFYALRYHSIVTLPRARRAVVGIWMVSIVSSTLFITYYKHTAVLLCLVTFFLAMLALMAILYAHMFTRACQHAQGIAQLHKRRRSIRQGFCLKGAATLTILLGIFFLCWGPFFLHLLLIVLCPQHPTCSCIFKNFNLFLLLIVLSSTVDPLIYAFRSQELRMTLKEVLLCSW

In turn, SYSMEHFR [ACTH(1-8)] showed a dissociation constant Kd of 88 nM.
